A word on the pKa: it is the pH at which an ionisable group is half protonated.

This data set deals with Asp85. Description: UV-vis. The conditions noted are these: not stated (0.02% DDM solution; pH adjusted with small amounts of HCl or NaOH); Purified, detergent-solubilised holoprotein with all-trans-retinal; no carotenoid; light adaptation not stated.

With “Actinorhodopsin ActR-13023 (Candidatus Aquiluna sp. IMCC13023)”, the pKa entry is given as “≈ 7.81”.
The result for “Actinorhodopsin ActR-13023 E96Q (Candidatus Aquiluna sp. IMCC13023; E96Q)” reads 7.67.

These data come from paper PMC8113403, “Assembly of Natively Synthesized Dual Chromophores Into Functional Actinorhodopsin” (Frontiers in Microbiology, 2021).
